According to publication PMC3247843:

Molecular target: soluble human FcRn (human) (UniProt P55899)
Test: SPR

KD relative to WT IgG1 (% higher than the KD of WT IgG1)	Substance	KD relative to WT IgG1 (fold of the KD of WT IgG1)
50	recombinant human IgG1–H435R (antibody)	
	recombinant human IgG3 (anti-Streptococcus pneumoniae serotype 6) (antibody)	2
